Starred links: 1 amine or outer side, 2 acyl side, 3 side chain; linkers in the order of their positions; H or OH if unused. Non-standard residues stand in square brackets, D forms with d. Groups on a side chain read outwards from the residue. No end group written: not given here. *: point of attachment. C20 diacid = O=C(O)CCCCCCCCCCCCCCCCCCC(=O)*; Phe(4-CN) = N#Cc1ccc(C[C@H](N)C(=O)O)cc1; αMePhe(2-F) = C[C@](N)(Cc1ccccc1F)C(=O)O; γGlu = O=C(O)[C@H](CCC(=O)[*:2])N[*:1]; αMeL = CC(C)C[C@](C)(N)C(=O)O; AEEA = NCCOCCOCC(=O)O; Aib = CC(C)(N)C(=O)O
T1: human GIP receptor (human) (UniProt P48546)
T1 sequence (looked up): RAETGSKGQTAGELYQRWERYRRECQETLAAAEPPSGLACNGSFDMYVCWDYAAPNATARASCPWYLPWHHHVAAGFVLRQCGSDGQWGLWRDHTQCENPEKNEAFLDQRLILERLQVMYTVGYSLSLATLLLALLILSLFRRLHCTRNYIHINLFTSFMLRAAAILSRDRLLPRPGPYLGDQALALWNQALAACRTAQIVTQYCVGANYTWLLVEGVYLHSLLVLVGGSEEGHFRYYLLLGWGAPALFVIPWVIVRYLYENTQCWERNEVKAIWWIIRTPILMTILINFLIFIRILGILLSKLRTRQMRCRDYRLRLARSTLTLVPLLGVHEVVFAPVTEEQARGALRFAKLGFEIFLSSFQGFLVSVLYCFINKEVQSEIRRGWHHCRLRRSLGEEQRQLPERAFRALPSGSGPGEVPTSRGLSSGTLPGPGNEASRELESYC

B1: Example 347 (peptide)
chain: YXQGTXTSDXSILLDKQAQKAFIEYLLEGGPSSGEPPPSEG
modifications: not fully specified; synthetic construct; SITE 2: note = 2-Aminoisobutyric Acid; SITE 6: note = alpha-methyl-2-fluoro-L-phenylalanine; SITE 10: note = 3-(4-Pyridyl)-L-alanine; SITE 20: note = Lysine is chemically modified through conjugation of the epsilon-amino group of the Lysine side chain with (2-[2-(2-Amino-ethoxy))
B2: Example 343 (peptide)
chain: YXQGTFTSDYSKXLDKKAQXAFVQWLLEGGPSSGEPPPSEG
modifications: not fully specified; synthetic construct; SITE 2: note = 2-Aminoisobutyric Acid; SITE 13: note = alpha-methyl-leucine; SITE 17: note = Lysine is chemically modified through conjugation of the epsilon-amino group of the Lysine side chain with (2-[2-(2-Amino-ethoxy)-ethoxy]-acetyl)-(gamma-Glu)-CO-(CH2) 18-CO2H; SITE 20: n

Experiments:
Experiment in all cases: cell-based or functional assay
hGLP-1R = hGLP-1R (Homo sapiens, UniProt P43220)
hGLP-1R, sequence (P43220 24-463): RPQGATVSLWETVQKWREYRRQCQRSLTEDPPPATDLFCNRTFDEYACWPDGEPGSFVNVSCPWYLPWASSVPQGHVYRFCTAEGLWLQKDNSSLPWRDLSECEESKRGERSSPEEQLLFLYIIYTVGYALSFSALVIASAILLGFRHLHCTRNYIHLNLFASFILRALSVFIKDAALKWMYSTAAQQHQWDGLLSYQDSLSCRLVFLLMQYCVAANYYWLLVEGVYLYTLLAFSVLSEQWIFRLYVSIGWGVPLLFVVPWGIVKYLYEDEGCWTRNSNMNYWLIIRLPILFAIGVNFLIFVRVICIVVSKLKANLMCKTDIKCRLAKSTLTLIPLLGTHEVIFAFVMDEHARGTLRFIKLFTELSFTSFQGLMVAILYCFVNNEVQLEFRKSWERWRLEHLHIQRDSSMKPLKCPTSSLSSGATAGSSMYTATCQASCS

[1] = molecular target: T1, human GIP receptor (human)
[2] = molecular target: human glucagon receptor (human) (UniProt P47871)
human glucagon receptor (human), sequence (P47871 26-477): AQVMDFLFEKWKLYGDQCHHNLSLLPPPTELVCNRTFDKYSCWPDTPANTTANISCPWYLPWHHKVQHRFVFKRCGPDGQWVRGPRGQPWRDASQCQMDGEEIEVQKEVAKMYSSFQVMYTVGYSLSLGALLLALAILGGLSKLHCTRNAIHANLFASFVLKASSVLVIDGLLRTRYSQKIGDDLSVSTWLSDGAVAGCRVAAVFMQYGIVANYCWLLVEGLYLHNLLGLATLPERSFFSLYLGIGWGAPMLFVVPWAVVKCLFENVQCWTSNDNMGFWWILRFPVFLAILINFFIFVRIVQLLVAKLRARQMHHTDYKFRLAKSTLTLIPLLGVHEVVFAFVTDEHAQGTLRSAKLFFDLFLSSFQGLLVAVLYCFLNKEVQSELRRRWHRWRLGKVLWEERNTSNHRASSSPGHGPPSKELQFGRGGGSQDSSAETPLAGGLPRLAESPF

Binder | Relative cAMP EC50 (hGLP-1R) | cAMP Rel EC50, nM (1% HSA) (hGLP-1R) | Relative cAMP EC50 [1] | cAMP Rel EC50, nM (1% HSA) [1] | Relative cAMP EC50 [2] | cAMP Rel EC50, nM (1% HSA) [2] | cAMP Rel EC50 (1% HSA) (hGLP-1R) | cAMP Rel EC50 (1% HSA) [1] | cAMP Rel EC50 (1% HSA) [2]
Y[Aib]QGTFTSDYSI[αMeL]LDKQAAKQFIEYLIA[Aib]GPSSGEPPPSEG-NH2 (not fully specified (residue 20)) [Example 349] | 0.555 nM | 218 nM | 0.152 nM | 52.6 nM | 5.12 nM | 2280 nM |  |  | 
Y[Aib]QGTFTSDYSI[αMeL]LDKQAAK([AEEA-AEEA-γGlu-C20 diacid])QFVEWLIAGGPSSGEPPPAEG-NH2 [Example 332] | 1.24 nM |  | 0.413 nM |  | 11.8 nM |  | 298 nM | 78.2 nM | 3340 nM
Y[Aib]QGTFTSDYSI[αMeL]LDKQAAK([AEEA-AEEA-γGlu-C20 diacid])QFVEWLIA[Aib]GPSSGEPPPGEG-NH2 [Example 333] | 0.705 nM |  | 0.265 nM |  | 7.09 nM |  | 182 nM | 36.3 nM | 1410 nM
Y[Aib]QGT[αMePhe(2-F)]TSDYSILLDKQAAKEFIEYLIEGGPSSGAPPPSEG-NH2 (not fully specified (residue 20)) [Example 340] | 0.648 nM |  | 0.189 nM |  | 2.02 nM |  | 246 nM | 60.4 nM | 647 nM
Y[Aib]QGTFTSDYSI[αMeL]LDKQAAKQFVEWLIA[Aib]GPSSGEPPPGTG-NH2 (not fully specified (residue 20)) [Example 336] | 0.921 nM |  | 0.306 nM |  | 7.05 nM |  | 227 nM | 64.4 nM | 1740 nM
Y[Aib]QGT[αMePhe(2-F)]TSDYSILLDAQAAKEFIEYLIEGGPSSGEPPPSEG-NH2 (not fully specified (residue 20)) [Example 351] | 0.679 nM | 272 nM | 0.243 nM | 57.5 nM | 12.1 nM | 2470 nM |  |  | 
B1 | 0.798 nM | 254 nM | 0.0634 nM | 17.3 nM | 8.88 nM | 3650 nM |  |  | 
Y[Aib]QGTFTSDYSI[αMeL]LDKQAAKQFVEWLIA[Aib]GPSSGEPPPGSG-NH2 (not fully specified (residue 20)) [Example 335] | 0.461 nM |  | 0.292 nM |  | 6.11 nM |  | 150 nM | 46.7 nM | 1410 nM
Y[Aib]QGT[αMePhe(2-F)]TSDYSKLLDKIAQKAFIEYLIEGGPSSGAPPPSEG-NH2 (not fully specified (residue 20)) [Example 339] | 1.06 nM |  | 0.101 nM |  | 6.81 nM |  | 192 nM | 28.8 nM | 1510 nM
Y[Aib]QGTFTSDYSK[αMeL]LDKKAQQAFIEYLLAGGPSSGEPPPSGE-NH2 (not fully specified (residue 17)) [Example 344] | 2.56 nM |  | 0.406 nM |  | 9.05 nM |  | 523 nM | 70.7 nM | 1440 nM
Y[Aib]QGT[αMePhe(2-F)]TSDYSILLDKQAQKAFIEYLLEGGPSSGEPPPSEG-NH2 (not fully specified (residue 20)) [Example 345] | 0.658 nM |  | 0.0377 nM |  | 11.3 nM |  | 256 nM | 15.3 nM | 3300 nM
Y[Aib]QGT[αMePhe(2-F)]TSDYSILLDKQAAKAFIEYLIEGGPSSGEPPPSEG-NH2 (not fully specified (residue 20)) [Example 331] | 0.663 nM |  | 0.148 nM |  | 1.66 nM |  | 207 nM | 47.5 nM | 339 nM
Y[Aib]QGT[αMePhe(2-F)]TSD[Phe(4-CN)]SILLDKQAQKAFIEYLLEGGPSSGEPPPSEG-NH2 (not fully specified (residue 20)) [Example 352] | 0.967 nM | 407 nM | 0.245 nM | 34.1 nM | 16.4 nM | 4020 nM |  |  | 
Y[Aib]QGT[αMePhe(2-F)]TSD[Phe(4-CN)]SILLDKQAQKAFIQYLLEGGPSSGEPPPSEG-NH2 (not fully specified (residue 20)) [Example 341] | 1.62 nM |  | 0.213 nM |  | 10.7 nM |  | 395 nM | 49.6 nM | 2930 nM
Y[Aib]QGT[αMePhe(2-F)]TSDYSKLLDKIAQKAFIEYLIEGGPSSGEPPPSEG-NH2 (not fully specified (residue 20)) [Example 330] | 0.63 nM |  | 0.0783 nM |  | 3.91 nM |  | 91.8 nM | 7.33 nM | 398 nM
Y[Aib]QGT[αMePhe(2-F)]TSD[Phe(4-CN)]SILLDKQAQKAFIEYLLEGGPSSGEPPPSAG-NH2 (not fully specified (residue 20)) [Example 350] | 0.776 nM | 360 nM | 0.106 nM | 33.6 nM | 10.4 nM | 3760 nM |  |  | 
B2 | 1.31 nM |  | 0.184 nM |  | 6.83 nM |  | 178 nM | 16.7 nM | 475 nM
Y[Aib]QGT[αMePhe(2-F)]TSD[Phe(4-CN)]SILLDKQAQKAFIQYLLEGGPSSGEPPPSEG-NH2 (not fully specified (residue 20)) [Example 353] | 0.634 nM | 222 nM | 0.127 nM | 53.7 nM | 11 nM | 3080 nM |  |  | 
Y[Aib]QGT[αMePhe(2-F)]TSDYSKLLDKIAQKAFIQYLIEGGPSSGEPPPSEG-NH2 (not fully specified (residue 20)) [Example 338] | 1.22 nM |  | 0.0733 nM |  | 4.02 nM |  | 172 nM | 10.9 nM | 659 nM
Y[Aib]QGTFTSDYSK[αMeL]LDKKAQQAFVQWLIE[dA]GPSSGEPPPSEG-NH2 (not fully specified (residue 17)) [Example 342] | 0.419 nM |  | 0.347 nM |  | 10.2 nM |  | 62 nM | 71.3 nM | 2130 nM
Y[Aib]QGTFTSDYSK[αMeL]LDKKAQQAFIEYLIAGGPSSGEPPPSGD-NH2 (not fully specified (residue 17)) [Example 337] | 0.686 nM |  | 0.332 nM |  | 5.95 nM |  | 272 nM | 99.1 nM | 2950 nM
Y[Aib]QGT[αMePhe(2-F)]TSDYSILLDKQAAKEFIEYLIEGGPSSGEPPPSEG-NH2 (not fully specified (residue 20)) [Example 348] | 0.346 nM | 136 nM | 0.127 nM | 36.4 nM | 3.9 nM | 1250 nM |  |  | 
Y[Aib]QGT[αMePhe(2-F)]TSDFSILLDKQAQKAFIEYLLEGGPSSGEPPPSEG-NH2 (not fully specified (residue 20)) [Example 346] | 1.17 nM |  | 0.0738 nM |  | 15.6 nM |  | 514 nM | 28.3 nM | 4310 nM

Reference: patent US20240270821A1, “GIP/GLP1/GCG TRI-RECEPTOR AGONISTS AND USES THEREOF” (priority 2023, published 2024)
